The results in this text go back to US20250186598A1, “RECOMBINANT HUMAN SERUM ALBUMIN-COLLAGEN BINDING DOMAIN FUSION PROTEIN FOR TUMOR-SPECIFIC TARGETING MATRIX, AND USE THEREOF” (Huatong Forturn (China) Co., Ltd., priority 2020, published 2025).

The data set concerns cell proliferation. Kind of data set: Recombinant human EGF biological activity assay (cell proliferation method/MTT colorimetric method), Chinese Pharmacopoeia 2015 General Rule 3528. Type of data set: cell-based. On the procedure: According to the Pharmacopoeia method, the biological activity of the rHSA/CBD-EGF complex was measured at the cellular level [2015 edition of the Chinese Pharmacopoeia Three General Rules 3528: Recombinant human epidermal growth factor biological activity assay (cell proliferation method/MTT colorimetric method)].
In general terms: Tetrazolium dyes change colour on reduction, which living cells bring about.

In the case of “rHSA/CBD: human CBD (vWF A3 domain) ligated to C-terminal of HSA through connecting peptide (GGGS)2; SEQ ID NO. 3”, the Biological specific activity result is given as “None”.
